The target in assay [1] is T1, biotinylated PCSK9 (UniProt Q8NBP7 31-692, limits assumed, biotinylated (site not stated)).
T1 construct: also called europium-labeled PCSK9
In words: method not stated; KD of the labelled probe of the Alexa FRET Standard assay.

Assay [2] concerns the target T1, biotinylated PCSK9. In words: method not stated; KD of the labelled probe of the Alexa FRET Plus assay.

The Kd is the free concentration of one partner at which half of the binding sites on the other are occupied at equilibrium, for simple one-to-one binding.

*1 amine or outer side, *2 acyl side, *3 side chain or, on linkers, in order; H or OH if unused. Bridges are numbered along the chain shown (N, C = ends). [ ]: non-standard residue; d: D form. AlexaFluor 647 = AlexaFluor 647 dye coupled as NHS ester to the Lys amine; Tyr(Me) = O-methyltyrosine, COc1ccc(C[C@H](N[*:1])C(=O)[*:2])cc1; Trp(5-F) = N[C@@H](Cc1c[nH]c2ccc(F)cc12)C(=O)O; mXylylene = c1cc(C[*:1])cc(C[*:2])c1; αMeP = C[C@@]1(C(=O)O)CCCN1; Mpa = O=C(O)CCS

T1 sequence (Q8NBP7 31-692 limits assumed): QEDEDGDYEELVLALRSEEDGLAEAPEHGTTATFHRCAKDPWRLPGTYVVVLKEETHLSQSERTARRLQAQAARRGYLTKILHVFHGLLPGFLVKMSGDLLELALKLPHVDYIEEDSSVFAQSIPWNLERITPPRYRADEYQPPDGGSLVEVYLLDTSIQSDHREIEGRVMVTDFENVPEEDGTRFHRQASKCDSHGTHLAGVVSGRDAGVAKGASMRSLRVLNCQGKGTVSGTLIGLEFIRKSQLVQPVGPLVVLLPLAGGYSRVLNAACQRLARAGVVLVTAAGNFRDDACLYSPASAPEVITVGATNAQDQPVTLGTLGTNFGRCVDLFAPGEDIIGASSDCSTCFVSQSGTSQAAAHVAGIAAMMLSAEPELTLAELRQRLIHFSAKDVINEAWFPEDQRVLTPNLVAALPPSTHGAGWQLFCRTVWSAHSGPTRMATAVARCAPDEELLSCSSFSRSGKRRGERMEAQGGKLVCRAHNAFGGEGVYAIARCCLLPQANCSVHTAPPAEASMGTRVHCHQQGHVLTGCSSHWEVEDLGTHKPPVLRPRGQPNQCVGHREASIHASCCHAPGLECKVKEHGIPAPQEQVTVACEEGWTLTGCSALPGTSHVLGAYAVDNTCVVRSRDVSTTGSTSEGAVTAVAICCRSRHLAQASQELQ

B1: Reagent A (peptide)
peptide: [Mpa]K(AlexaFluor 647)G[Trp(5-F)][Trp(5-F)]DHY[αMeP]C-NH2
modifications: linker N-10 via mXylylene
notes: also called AlexaFluor647 (AF) tagged cyclic peptide; AF cyclic peptide
For the molecule B1, the Kd with biotinylated PCSK9 [1] was found to be 83 nM.

B2: Reagent B (peptide)
peptide: [Mpa]K(AlexaFluor 647)[dA][Trp(5-F)][Trp(5-F)]DH[Tyr(Me)][αMeP]C-NH2
modifications: linker N-10 via mXylylene
notes: as for B1
As to B2, the Kd with biotinylated PCSK9 [2] is 35 nM.

The values are drawn from patent US20210163538A1 (published 2021).
